{"source": "patent US20250145695A1", "about": "(AC IMMUNE, published 2025)", "binders": {"B1": {"name": "ACI-7069-633B12-Ab1 (antibody, V domains shown)", "VH": "EVQLQQSGPELVKPGASVKISCKTSGFTFTEYSMHWVKQSHGKSLEWIGGINPNNGGTSYNQKFKGKATLTVDKSSSTAYMELRSLTSEDSAVYYCARESWGQGTTLTVSS", "VL": "not shown", "notes": "also called murine parental antibody"}, "B2": {"name": "hACI-7069-633B12-Ab1_H33L24 (antibody, V domains shown)", "VH": "EVQLVQSGAEVKKPGATVKISCKVSGFTFTEYSMHWVQQAPGKGLEWMGGINPNNGGTSYNQKFQGRVTITADTSTDTAYMELSSLRSEDTAVYYCARESWGQGTTVTVSS", "VL": "DIVMTQSPLSLPVTPGEPASISCKSSQSLLHSDGKTYLNWLLQKPGQSPQRLIYLVSKLDSRVPDRFSGSGSGTDFTLKISRVEAEDVGVYYCWQGTHFPHTFGQGTKLEIK"}, "B3": {"name": "hACI-7069-633B12-Ab1_H33L27 (antibody, V domains shown)", "VH": "B2 VH", "VL": "B2 VL with W94F"}, "B4": {"name": "hACI-7069-633B12-Ab1_H32L26 (antibody, V domains shown)", "VH": "B2 VH with N54Q, G56A", "VL": "B2 VL with G34A, W94F"}, "B5": {"name": "hACI-7069-633B12-Ab1_H28L22 (antibody, V domains shown)", "VH": "B2 VH with Q65K", "VL": "B2 VL with Q50K"}, "B6": {"name": "hACI-7069-633B12-Ab1_H32L24 (antibody, V domains shown)", "VH": "B2 VH with N54Q, G56A", "VL": "B2 VL"}, "B7": {"name": "hACI-7069-633B12-Ab1_H27L23 (antibody, V domains shown)", "VH": "B2 VH with Q65K, A72V", "VL": "B2 VL with I2V"}, "B8": {"name": "hACI-7069-633B12-Ab1_H32L27 (antibody, V domains shown)", "VH": "B2 VH with N54Q, G56A", "VL": "B2 VL with W94F"}, "B9": {"name": "hACI-7069-633B12-Ab1_H28L23 (antibody, V domains shown)", "VH": "B2 VH with Q65K", "VL": "B2 VL with I2V"}, "B10": {"name": "hACI-7069-633B12-Ab1_H33L26 (antibody, V domains shown)", "VH": "B2 VH", "VL": "B2 VL with G34A, W94F"}, "B11": {"name": "hACI-7069-633B12-Ab1_H28L24 (antibody, V domains shown)", "VH": "B2 VH with Q65K", "VL": "B2 VL"}}, "note": "Positions count from the first letter of the chain named. Several values for one entry are separate records, joined by “and”; a condition that tells them apart may be missing. Equal values may be shown once."}
{"target": "T1, TP-51 peptide (human)", "T1 construct": "Synthetic peptide from Pepscan; also called synthetic TDP-43 peptide (TP-51)", "T1 peptide": "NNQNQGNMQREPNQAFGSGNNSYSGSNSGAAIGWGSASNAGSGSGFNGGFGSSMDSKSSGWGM", "experiment": "SPR Biacore 8K, mAb captured by anti-human antibody, TP-51 injected, single-cycle kinetics", "description": "The instrument was primed with running buffer PBS-P+. Fc 1-2 of channels 1-8 (8K) were activated with a fresh solution of EDC/NHS (Amine Coupling Kit, 1:1 ratio of both reagents, GE Healthcare Life Sciences, BR-1006-33) at 10 μL/min for 420 sec and goat anti-human antibody (GE Healthcare Life Sciences, 29234600) was immobilized at 25 μg/mL in 10 mM sodium acetate pH 5 for 420 sec. Next, all Fc were quenched with 1 M ethanol amine (GE Healthcare Life Sciences, BR-1006-33), for 420 sec. Any non-covalently bound antibodies were removed by two regenerations with 10 mM Glycine-HCl pH 1.7 for 30 sec. Immobilization levels were evaluated following ethanolamine quenching (10000 RU for all channels).\nEach cycle started with non-covalent capture of humanized variants which were diluted in running buffer to a final concentration of 2 μg/mL and injected for 60 sec with a flow rate of 10 μL/min. TDP-43 mAbs were captured on channels 1-8, leaving Fc 1 as a blank Fc. Capture levels were evaluated following a 120 sec stabilization period after each mAb injection and ranged from 300-500 RU.\nTP-51 consists of amino acids 352-414 of TDP-43 (SEQ ID NO: 1). Injections of TP-51 peptide (Pepscan) were performed in single-cycle kinetics with increasing concentrations ranging from 1.2-100 nM prepared from serial 3-fold dilutions. Injections were performed with contact times of 300 sec/injection at a flow rate of 25 μL/min. A dissociation phase of 3600 sec followed the final injection. Sensor surface was regenerated by one injection of 10 mM Glycine-HCl pH 1.7 at a flow rate of 10 μL/min for 120 sec, followed by a stabilization period of 300 sec. Results obtained from single-cycle kinetics were double-referenced using the blank Fc 1 and buffer cycles and evaluated by Biacore 8K evaluation software with 1:1 kinetic fit model with RI and global Rmax. The following kinetic parameters were obtained: association rate constant (ka), dissociation rate constant (kd), affinity constant (KD) and saturation response (Rmax).", "units": {"Kd": "nM", "koff": "s⁻¹", "kon": "M⁻¹ s⁻¹"}}
{"binder": "B1", "Kd": 1.5, "koff": "9.8e-05", "kon": 67000}
{"binder": "B2", "Kd": 2.2, "koff": 0.00015, "kon": 70000}
{"binder": "B3", "Kd": 0.8, "koff": 0.00012, "kon": 150000}
{"binder": "B4", "Kd": 1.4, "koff": 0.00016, "kon": 120000}
{"binder": "B5", "Kd": 3.5, "koff": 0.0002, "kon": 58000}
{"binder": "B6", "Kd": 2, "koff": 0.00012, "kon": 64000}
{"binder": "B7", "Kd": 3.3, "koff": 0.00014, "kon": 42000}
{"binder": "B8", "Kd": 1, "koff": 0.00012, "kon": 120000}
{"binder": "B9", "Kd": 1.9, "koff": 0.00013, "kon": 65000}
{"binder": "B10", "Kd": 1.6, "koff": 0.00029, "kon": 160000}
{"binder": "B11", "Kd": 2, "koff": 0.00013, "kon": 66000}
{"target": "T2, soluble TDP-43 (human, UniProt Q13148 1-414)", "T2 construct": "also called soluble full-length TDP-43; FL TDP-43", "T2 sequence (Q13148 whole entry)": "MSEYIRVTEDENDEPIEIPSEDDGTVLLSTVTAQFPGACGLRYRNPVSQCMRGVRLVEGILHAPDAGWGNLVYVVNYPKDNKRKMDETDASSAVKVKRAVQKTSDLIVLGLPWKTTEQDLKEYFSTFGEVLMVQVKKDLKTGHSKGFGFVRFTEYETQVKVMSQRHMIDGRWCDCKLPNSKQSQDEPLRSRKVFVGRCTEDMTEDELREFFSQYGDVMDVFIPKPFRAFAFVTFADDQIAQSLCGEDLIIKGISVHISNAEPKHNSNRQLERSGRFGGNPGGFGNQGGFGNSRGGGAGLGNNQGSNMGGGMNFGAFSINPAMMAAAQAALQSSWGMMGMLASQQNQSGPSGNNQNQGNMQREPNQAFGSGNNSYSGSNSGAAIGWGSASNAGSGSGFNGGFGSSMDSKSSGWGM", "experiment": "SPR Biacore 8K, soluble TDP-43 immobilized on CM5, mAb injected, single-cycle kinetics", "description": "The instrument was primed with running buffer PBS-P+ and flow cells (Fc) 1 and 2 of channels 1-8 were activated with a fresh solution of EDC/NHS (Amine Coupling Kit, 1:1 ratio of both reagents, GE Healthcare Life Sciences, BR-1006-33) at 10 μL/min for 420 sec. Soluble TDP-43 (Selvita) was diluted in sodium acetate pH 4.5 to a final concentration of 5 μg/mL and injected for 900 sec with a flow rate of 5 μL/min on Fc 2. All flow cells were quenched with 1 M ethanol amine (GE Healthcare Life Sciences, BR-1006-33), at 10 μL/min for 420 sec. Immobilization levels after ethanolamine quenching were 680 RU on all eight channels. Prior to analysis, two Startup cycles were run. Increasing mAbs concentrations were injected in single-cycle kinetics ranging from 1.2 to 100 nM, prepared from a 3-fold serial dilution in running buffer, with a contact time of 300 sec and a dissociation time of 3600 sec at a flow rate of 30 μL/min. Each cycle was followed by one regeneration using 10 mM Glycine-HCl pH 1.7 with a contact time of 30 sec at 30 μL/min, followed by a stabilization period of 300 sec. Results obtained from single-cycle kinetics were double-referenced using the blank Fc 1 and buffer cycles and evaluated using Biacore 8K evaluation software using the 1:1 kinetic fit model with RI and global Rmax. The following kinetic parameters were obtained: association rate constant (ka), dissociation rate constant (kd), affinity constant (KD) and saturation response (Rmax).", "units": {"Kd": "nM", "koff": "s⁻¹", "kon": "M⁻¹ s⁻¹"}}
{"binder": "B1", "Kd": 0.328, "koff": "1.7e-05", "kon": 55000}
{"binder": "B2", "Kd": 0.471, "koff": "1.3e-05", "kon": 30000}
{"binder": "B3", "Kd": 0.126, "koff": "6.5e-06", "kon": 52000}
{"binder": "B4", "Kd": 0.563, "koff": "1.7e-05", "kon": 33000}
{"binder": "B5", "Kd": 1.16, "koff": "3.4e-05", "kon": 29000}
{"binder": "B6", "Kd": 0.716, "koff": "1.5e-05", "kon": 24000}
{"binder": "B7", "Kd": 0.925, "koff": "2.2e-05", "kon": 24000}
{"binder": "B8", "Kd": 0.143, "koff": "5.2e-06", "kon": 36000}
{"binder": "B9", "Kd": 0.806, "koff": "2.6e-05", "kon": 32000}
{"binder": "B10", "Kd": 0.22, "koff": "9e-06", "kon": 43000}
{"binder": "B11", "Kd": 0.531, "koff": "1.7e-05", "kon": 37000}
{"target": "T3, human TDP-43 in CSF of a healthy donor (human, UniProt Q13148 1-414, limits assumed)", "T3 construct": "also called TDP-43 in human CSF", "experiment": "SIMOA-based target engagement assay, unbound TDP-43 in human CSF pre-incubated with increasing antibody"}
{"binder": "B3", "EC50": "0.0356 µg/mL and 0.237 nM"}
